Literature values in publication PMC2652250.

Target: cardiac troponin I 147-163 (Homo sapiens) (UniProt P19429)
Assay: NMR

Kd: 154 µM
Substance: cardiac troponin C (cNTnC) N-terminal domain (from UniProt P63316)
